Results taken from publication PMC10582078.

Columns and labels:
[1] = IFA of co-assembled filaments, SW13 vim− cells; settings: glycan lost; control: WT NF-L
[2] = live-cell imaging, rat hippocampal neuron axons; settings: glycan lost; control: WT NF-L
IP/IB, baseline = settings: glycan lost; control: WT NF-L
IP/IB = settings: glycan gained; control: WT NF-L without OGT
[3] = IFA of filaments, NEFL−/− SH-SY5Y; settings: glycan gained; control: WT NF-L without OGT
[4] = differential extraction, urea-fraction NF-L, 293T; settings: glycan gained; control: WT NF-L without OGT
[5] = differential extraction, NEFL−/− 293T, no OGT; settings: glycan lost; control: WT NF-L without OGT

B1: neurofilament-light (NF-L): NF-L4A (protein)
parent chain: MSSFSYEPYYSTSYKRRYVETPRVHISSVRSGYSTARSAYSSYSAPVSSSLSVRRSYSSSSGSLMPSLENLDLSQVAAISNDLKSIRTQEKAQLQDLNDRFASFIERVHELEQQNKVLEAELLVLRQKHSEPSRFRALYEQEIRDLRLAAEDATNEKQALQGEREGLEETLRNLQARYEEEVLSREDAEGRLMEARKGADEAALARAELEKRIDSLMDEISFLKKVHEEEIAELQAQIQYAQISVEMDVTKPDLSAALKDIRAQYEKLAAKNMQNAEEWFKSRFTVLTESAAKNTDAVRAAKDEVSESRRLLKAKTLEIEACRGMNEALEKQLQELEDKQNADISAMQDTINKLENELRTTKSEMARYLKEYQDLLNVKMALDIEIAAYRKLLEGEETRLSFTSVGSITSGYSQSSQVFGRSAYGGLQTSSYLMSTRSFPSYYTSHVQEEQIEVEETIEAAKAEEAKDEPPSEGEAEEEEKDKEEAEEEEAAEEEEAAKEESEEAKEEEEGGEGEEGEETKEAEEEEKKVEGAGEEQAAKKKD
oligomerisation [1]: decreases | other: suppression of mitochondrial motility [2]: abolishes | other: NF-L phosphorylation (IP/IB, baseline): increases

B2: neurofilament-light (NF-L): NF-L5A (protein)
parent chain: B1 parent chain
other: NF-L phosphorylation (IP/IB, baseline): increases

B3: neurofilament-light (NF-L): OGT co-expression (protein)
parent chain: B1 parent chain
other: NF-L phosphorylation (IP/IB): decreases | oligomerisation [3]: decreases | oligomerisation [4]: decreases

B4: neurofilament-light (NF-L): T21A (protein)
parent chain: B1 parent chain
oligomerisation [5]: no change

B5: neurofilament-light (NF-L): S27A (protein)
parent chain: B1 parent chain
oligomerisation [5]: no change

B6: neurofilament-light (NF-L): S34A (protein)
parent chain: B1 parent chain
oligomerisation [5]: no change

B7: neurofilament-light (NF-L): S48A (protein)
parent chain: B1 parent chain
oligomerisation [5]: no change

B8: neurofilament-light (NF-L): S431A (protein)
parent chain: B1 parent chain
oligomerisation [5]: no change
